A short description of this data set: self-splicing fitness, log relative to wild type (ln ratio); higher = more splicing; Tetrahymena group I intron in knt gene, E. coli kanamycin selection, DiMSum; sequences stand for … in CUCUCU…GGAGGGAAAAGUUAUCAGGCAUGCACCUGGUAGCUAGUCUUUAAACCAAUAGAUUGCAUCGGUUUAAAAGGCAAGACCGUCAAAUUGCGGGAAAGGGGUCAACAGCCGUUCAGUACCAAGUCUCAGGGGAAACUUUGAGAUGGCCUUGCAAAGGGUAUGGUAAUAAGCUGACGGACAUGGUCCUAACCACGCAGCCAAGUCCUAAGUCAACAGAUCUUCUGUUGAUAUGGAUGCAGUUCACAGACUAAAUGUCGGUCGGGGAAGAUGUAUUCUUCUCAUAAGAUAUAGUCGGACCUCUCCUUAAUGGGAGCUAGCGGAUGAAGUGAUGCAACACUGGAGCCGCUGGGAACUAAUUUGUAUGCGAAAGUAUAUUGAUUAGUUUUGGAGUACUCGUGGUCG
In outline: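 Fitness was computed with DiMSum as the error-weighted combination of replicate fold changes, kanamycin versus none, each normalised to wild type. The library randomised all eight intron nucleotides of the P1ex region, with the intron placed in the knt kanamycin-resistance gene on pET-22b(+) in E. coli BL21(DE3). Six replicate transformations were grown overnight at 37°C or 30°C on LB agar with or without 25 μg/mL kanamycin, plus 100 μg/mL carbenicillin, 50 μM IPTG and 0.2% rhamnose. Pooled colonies were amplicon-sequenced on an Illumina HiSeq 2500.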

± gives the uncertainty stated by the source.

For CAAAAGCAAUAUUACGGGCC, the “self-splicing fitness (ln)” value (30 °C) was -3.65 ± 0.27 and the “self-splicing fitness (ln)” value (37 °C) was -2.28 ± 0.28.

For CAAAAGCAAUAUUACGGGCG, the “self-splicing fitness (ln)” value is, setting by setting: (30 °C) -0.0633 ± 0.084; (37 °C) 0.608 ± 0.11. In the same order, the values of CAAAAGCAAUAUUACGGGGC are -3.66 ± 0.26 and -3.02 ± 0.23.

CAAAAGCAAUAUUACGGGUU: the “self-splicing fitness (ln)” value was -3.28 ± 0.14 (30 °C) and -2.46 ± 0.16 (37 °C). For CAAAAGCAAUAUUACGGUAG the same measures were -0.372 ± 0.058 and -0.148 ± 0.074.

On to CAAAAGCAAUAUUACGGUGG, for which the “self-splicing fitness (ln)” value was -1.13 ± 0.052 (30 °C) and -0.335 ± 0.073 (37 °C). In the same order, the values of CAAAAGCAAUAUUACGUAAG are -0.419 ± 0.047 and 0.0644 ± 0.059. For CAAAAGCAAUAUUACGUCAU the same measures were -2.71 ± 0.17 and -2.48 ± 0.22. For CAAAAGCAAUAUUACGUGAA the same measures were -2.73 ± 0.085 and -1.63 ± 0.099. Take CAAAAGCAAUAUUACGUGCU: the “self-splicing fitness (ln)” value was -4.33 ± 0.2 (30 °C) and -2.27 ± 0.15 (37 °C). With CAAAAGCAAUAUUACGUGGU, the “self-splicing fitness (ln)” value reads like this: (30 °C) -3.65 ± 0.11; (37 °C) -2.49 ± 0.11. In the same order, the values of CAAAAGCAAUAUUACGUUAU are -3.96 ± 0.13 and -2.5 ± 0.12. Consider CAAAAGCAAUAUUACGUUUA, for which the “self-splicing fitness (ln)” value was -2.19 ± 0.13 (30 °C) and -1.3 ± 0.13 (37 °C).

Turning to CAACAGCAAUAUUACGAAAA, the “self-splicing fitness (ln)” value was -2.73 ± 0.3 (30 °C) and -1.38 ± 0.26 (37 °C). Consider CAACAGCAAUAUUACGAACG, for which the “self-splicing fitness (ln)” value was found to be 0.0149 ± 0.065 (30 °C) and 0.73 ± 0.084 (37 °C). For CAACAGCAAUAUUACGAGAG the same measures were -3.41 ± 0.13 and -1.91 ± 0.11. For the sequence CAACAGCAAUAUUACGAGCU, the “self-splicing fitness (ln)” value (30 °C) was -3.61 ± 0.18 and the “self-splicing fitness (ln)” value (37 °C) is -2.44 ± 0.17. For CAACAGCAAUAUUACGCACC the same measures were -3.36 ± 0.34 and -0.879 ± 0.3. In the same order, the values of CAACAGCAAUAUUACGCCUG are -1.23 ± 0.088 and -0.914 ± 0.11. In the same order, the values of CAACAGCAAUAUUACGCGAA are -2.16 ± 0.16 and -1.61 ± 0.14. Consider CAACAGCAAUAUUACGCGAC, for which the “self-splicing fitness (ln)” value was -3.56 ± 0.12 (30 °C) and -1.5 ± 0.12 (37 °C). In the same order, the values of CAACAGCAAUAUUACGCGCA are -0.857 ± 0.085 and 0.0215 ± 0.087. For CAACAGCAAUAUUACGCGCG, the “self-splicing fitness (ln)” value (30 °C) is -0.385 ± 0.059 and the “self-splicing fitness (ln)” value (37 °C) is -0.492 ± 0.082. In the same order, the values of CAACAGCAAUAUUACGCGGA are -1.6 ± 0.1 and -1.83 ± 0.091. For CAACAGCAAUAUUACGCUAA the same measures were -2.36 ± 0.098 and -2.11 ± 0.12. In the case of CAACAGCAAUAUUACGGCAC, the “self-splicing fitness (ln)” value reads like this: (30 °C) -2.31 ± 0.13; (37 °C) -1.61 ± 0.13. In the same order, the values of CAACAGCAAUAUUACGGCGC are -1.94 ± 0.076 and -1.24 ± 0.096.

Take CAACAGCAAUAUUACGGCGU: the “self-splicing fitness (ln)” value is -2.15 ± 0.091 (30 °C) and -0.0717 ± 0.092 (37 °C). In the same order, the values of CAACAGCAAUAUUACGGGAG are -1.23 ± 0.051 and -1.03 ± 0.063. In the same order, the values of CAACAGCAAUAUUACGGGCC are -5.11 ± 0.46 and -1.48 ± 0.14. In the same order, the values of CAACAGCAAUAUUACGGGUU are -3.14 ± 0.15 and -1.78 ± 0.12. CAACAGCAAUAUUACGGUAC: the “self-splicing fitness (ln)” value was -4.95 ± 0.28 (30 °C) and -3.34 ± 0.22 (37 °C).

Take CAACAGCAAUAUUACGGUUA: the “self-splicing fitness (ln)” value (30 °C) is -0.258 ± 0.048 and the “self-splicing fitness (ln)” value (37 °C) turned out to be 0.275 ± 0.056. In the same order, the values of CAACAGCAAUAUUACGUAGG are -0.482 ± 0.055 and 0.249 ± 0.069. Regarding CAACAGCAAUAUUACGUGCU, the “self-splicing fitness (ln)” value runs as follows: (30 °C) -3.48 ± 0.13; (37 °C) -2.27 ± 0.12. With CAAGAGCAAUAUUACGACCC, for the setting “30 °C”, the “self-splicing fitness (ln)” value was -2.19 ± 0.45. Regarding CAAGAGCAAUAUUACGAGGG, the “self-splicing fitness (ln)” value by setting is: (30 °C) -3.17 ± 0.16; (37 °C) -2.75 ± 0.2.

(Values after the supplement of paper PMC7877785.)
